Experimental data published in the RNAGym collection of RNA variant scans (doi:10.7554/elife.80360).

B1: HDV Ribozyme (parent)
chain: GGCCGGCAUGGUCCCAGCCUCCUCGCUGGCGCCGGCUGGGCAACAUUCCGAGGGGACCGUCCCCUCGGUAAUGGCGAAUGGGACCCA

Variants of: B1
Assay: self-cleavage, relative activity (ratio to wild type); higher = more cleavage; co-transcriptional

Variant | self-cleavage
C61A G74C | 0.315
C62G G80C | 0.0791
G59C C63U | 1.11
C62G G81A | 0.299
C61G A83G | 0.567
C61G U65C | 1.24
U60C G67U | 1.03
C64U C85G | 0.851
C64U C85U | 1.08
G59U U60C | 1.37
G59U U60G | 0.88
C64G C85A | 0.956
C64G C85U | 1.17
C61A G82C | 0.228
C62U G73U | 0.472
C62U G73A | 0.808
C63A C64A | 0.665
C64G U72G | 0.745
C62G A83U | 0.17
C62G A83G | 0.404
C64A G76A | 0.997
C64A G76C | 0.95
C64A G76U | 0.858
U60A G74A | 0.422

Variant | self-cleavage
G59C C62G | 0.6
U60C A87C | 1.05
C62U A70G | 1.09
C62U U79A | 0.95
U60C A83C | 0.443
C63G C75U | 0.154
U60G C66A | 0.831
C63A G68C | 0.495
G59U U69C | 0.852
U60C U79A | 1.23
U60C U79G | 0.554
C62A C75U | 0.108
C62A A70C | 0.886
C62A A70G | 0.682
C62U G82C | 0.242
C62U G82A | 0.338
C61U A87U | 0.959
C63G G68C | 0.232
C64A A77U | 0.449
C64A A77G | 0.703
C61A C86U | 1.01
C61A C86A | 0.897
G59U A70C | 0.77
G59U A70G | 1.12

Variant | self-cleavage
G59U A70U | 0.923
C63G G76U | 0.978
C64U G74U | 0.569
C64U G74C | 0.128
C64U G67C | 0.906
G59U C66U | 0.875
U60A C66U | 1.12
U60A C66A | 0.972
U60A C66G | 0.878
C64G G74A | 0.17
C64A A87G | 0.902
C61G C62A | 0.958
C61G C62U | 0.815
C61G A71C | 0.787
C64A C84U | 0.694
G59C A78U | 0.155
C64A U79G | 0.684
C64A U79A | 0.796
C62U G76C | 0.941
C64A A71G | 0.529
C62A A87G | 0.867
C62A A87C | 0.946
G59U C64A | 0.899
C64U C75G | 0.106

Variant | self-cleavage
C64G C66G | 0.742
C64G C66A | 0.888
C64G C66U | 0.955
C63A A70G | 0.767
C63A A70C | 0.883
C63A A70U | 0.812
U60A G80A | 0.3
G59A U79C | 0.518
G59A U79A | 0.884
G59U A83G | 0.732
G59U A83U | 0.486
C62U A77C | 0.491
C62G C66A | 0.323
C64G G73C | 0.324
C64G G73U | 0.172
C64G A71C | 0.68
C64G U65A | 0.799
C62G U69G | 0.804
C62G U69A | 1.04
C63A A77G | 0.734
U60C U72C | 0.539
U60A C64U | 1.13
C62A C63A | 1.03
U60G G81U | 0.123

Variant | self-cleavage
C62G A77U | 0.388
C61G G73A | 0.475
C61U G67A | 0.562
C61U G67C | 0.78
U60A C86U | 0.831
U60A U65A | 0.831
G59C A70G | 1.06
C62G C64G | 0.427
C62G C64A | 0.608
C62G C64U | 0.485
C64A G80U | 0.294
C64A G80C | 0.125
G59U U72A | 0.665
C62U U69C | 1.07
G59C G81C | 0.261
G59C C75A | 0.219
C63U G74U | 0.583
C61U U79G | 1.15
C62G U79C | 0.529
C62G | 0.695
C62U | 0.994
C62A | 0.979
C61U A83U | 0.456
U60C C63A | 1.04

Variant | self-cleavage
C63G G74U | 0.529
C62U U65C | 0.988
C62U U65G | 0.631
U60A C63G | 0.851
C64U A83G | 1.02
U60G C61G | 0.872
C63U U65C | 1.14
C61U A78U | 0.326
C62U G68C | 0.818
C62U G68U | 0.68
C64G C75U | 0.163
C61G U69C | 0.96
U60C C64A | 1.13
C61G A70U | 1.04
U60C G80C | 0.125
G59C C66U | 0.81
G59A U69A | 1.08
G59A U69G | 1
C61G U79G | 0.437
C61A A77U | 0.389
C61A A77G | 1.03
G59C U65G | 0.95
G59C U65A | 1.17
C63U A83G | 0.653

Variant | self-cleavage
C63U A83C | 0.502
C62A U65A | 0.332
C62A U65C | 0.969
C63G G80A | 0.366
U60G U79A | 0.665
U60A A70G | 0.77
U60A A70C | 0.808
C61U C66G | 0.529
C62A G82C | 0.271
C62A G82U | 0.295
G59C G82U | 0.489
G59C G73U | 0.379
C63G | 0.764
C63U | 1
C63A | 0.973
C62A C85G | 0.88
U60G U69C | 1.09
C63A C75G | 0.201
C64U A71G | 1.07
C64U A71U | 1.12
C64A A83G | 0.857
C64U A78U | 0.297
U60G G73U | 0.298
